B4: His-mSTIC2 (recombinant mature Arabidopsis thaliana STIC2, aa 49-182) (natural protein)
chain: VNGLFGGGNKDNNSEDGQSKAGIFGNMQNMYETVKKAQMVVQVEAVRVQKELAAAEFDGYCAGELVKVTLSGNQQPIRTDITEAAMELGSEKLSQLVTEAYKDAHAKSVVAMKERMSDLAQSLGMPPGLSEGMK

Experiment [1] addresses B4. The experiment in a line: peptide or protein array.
Experiment [2] deals with B4. Briefly: ITC. A general note: ITC needs no label: the signal is the heat of the interaction.
The target in experiment [3] is T1, Alb4C-His (recombinant His-tagged C-terminus of Alb4, aa 334-499) (UniProt Q9FYL3 334-499).
T1 sequence: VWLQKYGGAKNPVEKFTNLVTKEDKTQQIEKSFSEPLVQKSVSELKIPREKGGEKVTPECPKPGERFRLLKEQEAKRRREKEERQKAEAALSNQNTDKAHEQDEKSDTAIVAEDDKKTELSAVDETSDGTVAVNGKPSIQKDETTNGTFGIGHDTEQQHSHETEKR
The experiment in a line: ITC.

B1: Alb3 15mer peptide spot (aa 386-400) (peptide)
peptide: GERFRQLKEQEKRSK
B1: the binding result in experiment [1] is on record as “binds”.

B2: Alb3C-His (recombinant His-tagged C-terminus of Alb3, aa 350-462) (domain or fragment)
chain: VYLRKLGGAKPNMDENASKIISAGRAKRSIAQPDDAGERFRQLKEQEKRSKKNKAVAKDTVELVEESQSESEEGSDDEEEEAREGALASSTTSKPLPEVGQRRSKRSKRKRTV
Broadly, the Kd is the constant that tells how readily two partners part at equilibrium. Regarding B2, the Kd in experiment [2] was 136 µM.

B3: Alb4 15mer peptide spot (aa 394-408) (peptide)
peptide: PKPGERFRLLKEQEA
B3: the binding result in experiment [1] is given as “binds”.

Consider B4, for which the Kd in experiment [3] stood at 16.6 µM.

The record behind these values is publication doi:10.1101/2022.03.18.484870 (bioRxiv, 2022).
